Source: US20240117030A1 (Pfizer, published 2024)

T1: human IL-4 (human, UniProt P05112 25-153)
T1 sequence (looked up): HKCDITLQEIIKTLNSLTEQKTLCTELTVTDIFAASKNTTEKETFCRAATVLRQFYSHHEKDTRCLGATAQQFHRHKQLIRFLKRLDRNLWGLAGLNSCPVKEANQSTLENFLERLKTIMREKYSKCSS

T2: human IL-4 (human, UniProt P05112 25-153)
T2 sequence (looked up): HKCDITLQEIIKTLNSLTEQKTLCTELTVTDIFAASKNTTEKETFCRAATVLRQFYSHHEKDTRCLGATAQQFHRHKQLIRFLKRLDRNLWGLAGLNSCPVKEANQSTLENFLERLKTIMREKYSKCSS

B1: IL13433-0607 (trispecific antibody, human IgG1, kappa)
heavy: EVQLVESGGGLVQPGGSLRLSCAASGFTFSSYAMSWVRQAPGKGLEWVASISTGDTTYYPDSVKGRFTISRDNAKNSLYLQMNSLRAEDTAVYYCARNEGYYFGLTQWGRGTLVTVSSASTKGPSVFPKAPSSKSTSGGTAALGCLVKDYFPEPVTVSWNSGALTSGVHTFPAVLQSSGLYSLSSSVTVPSSSLGTQTYICNVNHKPSNTKVDKKVEPKSCDKTHTCPPCPAPEAAGAPSVFLFPPKPKDTLMISRTPEVTCVVVDVSHEDPEVKFNWYVDGVEVHNAKTKPREEQYNSTYRVVSVLTVLHQDWLNGKEYKCKVSNKALPAPIEKTISKAKGQPREPQVCTLPPSREEMTKNQVSLWCLVKGFYPSDIAVEWESNGQPENNYKTTPPVLDSDGSFFLYSKLTVDKSRWQQGNVFSCSVLHEALHSHYTQKSLSLSPGK
chain 1: DIQMTQSPSSLSASVGDRVTITCRASQPISKHLDWYQQKPGKAPKLLIYFTNNLQTGVPSRFSGSGSGTDFTLTISSLQPEDFATYYCFQYNQGWTFGGGTKVEIKRTVAAPSVFIFPPSDEQLKSGTASVVCLLNNFYPREAKVQWKVDNALQSGNSQESVTEQDSKDSTYSLSSTLTLSKADYEKHKVYACEVTHQGLSSPVTKSFNRGECGGGGSEVTLRESGPALVKPTQTLTLTCTFSGFSLSNFGEGLSWIRQPPGKGLEWLAHIYWDDDKRYSTSLKTRLTISKDTSRNQVVLTMTNMDPVDTATYYCARRETVFYWYFDVWGQGTTVTVSSASTKGPSVFPEAPSSKSTSGGTAALGCLVKDYFPEPVTVSWNSGALTSGVHTFPAVLQSSGLYSLGSVVTVPSSSLGTQTYICNVNHKPSNTKVDKKVEPKSCDKTHTCPPCPAPEAAGAPSVFLFPPKPKDTLMISRTPEVTCVVVDVSHEDPEVKFNWYVDGVEVHNAKTKPREEQYNSTYRVVSVLTVLHQDWLNGKEYKCKVSNKALPAPIEKTISKAKGQPREPQVYTLPPCREEMTKNQVSLSCAVKGFYPSDIAVEWESNGQPENNYKTTPPVLDSDGSFFLVSKLTVDKSRWQQGNVFSCSVLHEALHSHYTQKSLSLSPGK
light 1: DIQMTQSPSSLSASVGDRVTITCRASESVDHFGWSLVHWYQQKPGKAPKLLIYRADSLETGVPSRFSGSGSGTDFTLTISSLQPEDFATYYCQQSNEDPWTFGGGTKVEIKRTVAAPSVFIFPPSDEQLKSGTASVSCLLNNFYPREAKVQWKVDNALQSGNSQESVTEQDSKDSTYSLDSTLTLSKADYEKHKVYACEVTHQGLSSPVTKSFNRGEC
light 2: DIQMTQSPSSLSASVGDRVTITCRASQSVDEEGDSYMNWYQQKPGKAPKLLIYAASNLESGVPSRFSGSGSGTDFTLTISSLQPEDFATYYCQQSHKDPPTFGGGTKVEIKRTVAAPSVFIFPPSDEQLKSGTASVSCLLNNFYPREAKVQWKVDNALQSGNSQESVTEQDSKDSTYSLKSTLTLSKADYEKHKVYACEVTHQGLSSPVTKSFNRGEC
chain 2: EVQLVESGGGLVQPGGSLRLSCAASGFTFSSYWMYWVRQAPGKGLEWVAAITPNAGEDYYPESVKGRFTISRDNAKNSLYLQMNSLRAEDTAVYYCARGHYYYTSYSLGYWGQGTLVTVSSASTKGPSVFPLAPSSKSTSGGTAALGCLVKDYFPEPVTVSWNSGALTSGVHTFPAVLQSSGLYSLSSVVTVPSSSLGTQTYICNVNHKPSNTKVDKKVEPKSC
B2: IL4-0002 (antibody, human IgG1, kappa)
heavy: EVTLRESGPALVKPTQTLTLTCTFSGFSLSNFGEGLSWIRQPPGKGLEWLAHIYWDDDKRYNPSLKSRLTISKDTSRNQVVLTMTNMDPVDTATYYCARRETVFYWYFDVWGQGTTVTVSSASTKGPSVFPLAPSSKSTSGGTAALGCLVKDYFPEPVTVSWNSGALTSGVHTFPAVLQSSGLYSLSSVVTVPSSSLGTQTYICNVNHKPSNTKVDKKVEPKSCDKTHTCPPCPAPEAAGAPSVFLFPPKPKDTLMISRTPEVTCVVVDVSHEDPEVKFNWYVDGVEVHNAKTKPREEQYNSTYRVVSVLTVLHQDWLNGKEYKCKVSNKALPAPIEKTISKAKGQPREPQVYTLPPSREEMTKNQVSLTCLVKGFYPSDIAVEWESNGQPENNYKTTPPVLDSDGSFFLYSKLTVDKSRWQQGNVFSCSVMHEALHNHYTQKSLSLSPGK
light: DIQMTQSPSSLSASVGDRVTITCKASQSVDEDGDSYMNWYQQKPGKAPKLLIYAASNLESGVPSRFSGSGSGTDFTLTISSLQPEDFATYYCQQSNEDPPTFGGGTKVEIKRTVAAPSVFIFPPSDEQLKSGTASVVCLLNNFYPREAKVQWKVDNALQSGNSQESVTEQDSKDSTYSLSSTLTLSKADYEKHKVYACEVTHQGLSSPVTKSFNRGEC
B3: IL413TSLP-0248 (other)
heavy: EVQLVESGGGLVQPGGSLRLSCAASGFTFSSYAMSWVRQAPGKGLEWVASISSGDTTYYPDSVKGRFTISRDNAKNSLYLQMNSLRAEDTAVYYCARNEGYYFGLTLWGQGTLVTVSSASTKGPSVFPKAPSSKSTSGGTAALGCLVKDYFPEPVTVSWNSGALTSGVHTFPAVLQSSGLYSLSSSVTVPSSSLGTQTYICNVNHKPSNTKVDKKVEPKSCDKTHTCPPCPAPEAAGAPSVFLFPPKPKDTLMISRTPEVTCVVVDVSHEDPEVKFNWYVDGVEVHNAKTKPREEQYNSTYRVVSVLTVLHQDWLNGKEYKCKVSNKALPAPIEKTISKAKGQPREPQVCTLPPSREEMTKNQVSLWCLVKGFYPSDIAVEWESNGQPENNYKTTPPVLDSDGSFFLYSKLTVDKSRWQQGNVFSCSVMHEALHNHYTQKSLSLSPGK
chain 1: SYVLTQPPSVSVAPGQTARITCGGNNLGSKSVHWYQQKPGQAPVLVVYDDSDRPSWIPERFSGSNSGNTATLTISRGEAGDEADYYCQVWDSSSDHVVFGGGTKLTVLGQPKAAPSVTLFPPSSEELQANKATLVCLISDFYPGAVTVAWKADSSPVKAGVETTTPSKQSNNKYAASSYLSLTPEQWKSHRSYSCQVTHEGSTVEKTVAPTECSGGGGSEVTLRESGPALVKPTQTLTLTCTFSGFSLSNFGEGLSWIRQPPGKGLEWLAHIYWDDDKRYNPSLKSRLTISKDTSRNQVVLTMTNMDPVDTATYYCARRETVFYWYFDVWGQGTTVTVSSASTKGPSVFPEAPSSKSTSGGTAALGCLVKDYFPEPVTVSWNSGALTSGVHTFPAVLQSSGLYSLGSVVTVPSSSLGTQTYICNVNHKPSNTKVDKKVEPKSCDKTHTCPPCPAPEAAGAPSVFLFPPKPKDTLMISRTPEVTCVVVDVSHEDPEVKFNWYVDGVEVHNAKTKPREEQYNSTYRVVSVLTVLHQDWLNGKEYKCKVSNKALPAPIEKTISKAKGQPREPQVYTLPPCREEMTKNQVSLSCAVKGFYPSDIAVEWESNGQPENNYKTTPPVLDSDGSFFLVSKLTVDKSRWQQGNVFSCSVMHEALHNHYTQKSLSLSPGK
light 1: DIQMTQSPSSLSASVGDRVTITCKASESVDHFGWSLVHWYQQKPGKAPKLLIYRASNLESGVPSRFSGSGSGTDFTLTISSLQPEDFATYYCQQSNEDPWTFGGGTKVEIKRTVAAPSVFIFPPSDEQLKSGTASVSCLLNNFYPREAKVQWKVDNALQSGNSQESVTEQDSKDSTYSLDSTLTLSKADYEKHKVYACEVTHQGLSSPVTKSFNRGEC
light 2: DIQMTQSPSSLSASVGDRVTITCKASQSVDEDGDSYMNWYQQKPGKAPKLLIYAASNLESGVPSRFSGSGSGTDFTLTISSLQPEDFATYYCQQSNEDPPTFGGGTKVEIKRTVAAPSVFIFPPSDEQLKSGTASVSCLLNNFYPREAKVQWKVDNALQSGNSQESVTEQDSKDSTYSLKSTLTLSKADYEKHKVYACEVTHQGLSSPVTKSFNRGEC
chain 2: not shown
B4: IL13-0001 (antibody, human IgG1, kappa, V domains shown)
VH: EVQLVESGGGLVQPGGSLRLSCAASGFTFSSYAMSWVRQAPGKGLEWVASISSGDTTYYPDSVKGRFTISRDNAKNSLYLQMNSLRAEDTAVYYCARNEGYYFGLTLWGQGTLVTVSS
VL: DIQMTQSPSSLSASVGDRVTITCKASESVDHFGWSLVHWYQQKPGKAPKLLIYRASNLESGVPSRFSGSGSGTDFTLTISSLQPEDFATYYCQQSNEDPWTFGGGTKVEIKR

What was measured:
Test in all cases: cell-based or functional assay
human IL-4 [1] = target: T1, human IL-4
human IL-4 [2] = target: T2, human IL-4; remark: listed apart in the source
human IL-13 = human IL-13 (human, UniProt P35225 35-146)
Chain of human IL-13 (P35225 35-146 limits assumed): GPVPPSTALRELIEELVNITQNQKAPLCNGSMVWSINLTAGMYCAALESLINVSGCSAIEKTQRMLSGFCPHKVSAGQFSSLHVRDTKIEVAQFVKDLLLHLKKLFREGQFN

| Binder | fold loss in IL-4 neutralization (CD23 bioassay) relative to IL13433-0006 (human IL-4 [1]) [fold] | a-hIL-4 bioassay IC50, pM) (human IL-4 [2]) [pM] | a-hIL-13 bioassay (IC50, pM) (human IL-13) [pM] |
| --- | --- | --- | --- |
| B1 | ~6.5 |  |  |
| B2 |  | 2.39 |  |
| B3 |  | 5.11 | 15.6 |
| B4 |  |  | 5.79 |
